{"source": "paper PMC9531428", "about": "“The diurnal emission of floral scent in Oncidium hybrid orchid is controlled by CIRCADIAN CLOCK ASSOCIATED 1 (CCA1) through the direct regulation on terpene synthase” (BMC Plant Biology, 2022)", "key": {"[1]": {"target": "T1, terpene synthase (TPS; OncSBTPS) (Oncidium hybrid cultivar, UniProt A0A3R5SMM9)", "T1 construct": "recombinant purified protein", "T1 sequence (A0A3R5SMM9 1-551)": "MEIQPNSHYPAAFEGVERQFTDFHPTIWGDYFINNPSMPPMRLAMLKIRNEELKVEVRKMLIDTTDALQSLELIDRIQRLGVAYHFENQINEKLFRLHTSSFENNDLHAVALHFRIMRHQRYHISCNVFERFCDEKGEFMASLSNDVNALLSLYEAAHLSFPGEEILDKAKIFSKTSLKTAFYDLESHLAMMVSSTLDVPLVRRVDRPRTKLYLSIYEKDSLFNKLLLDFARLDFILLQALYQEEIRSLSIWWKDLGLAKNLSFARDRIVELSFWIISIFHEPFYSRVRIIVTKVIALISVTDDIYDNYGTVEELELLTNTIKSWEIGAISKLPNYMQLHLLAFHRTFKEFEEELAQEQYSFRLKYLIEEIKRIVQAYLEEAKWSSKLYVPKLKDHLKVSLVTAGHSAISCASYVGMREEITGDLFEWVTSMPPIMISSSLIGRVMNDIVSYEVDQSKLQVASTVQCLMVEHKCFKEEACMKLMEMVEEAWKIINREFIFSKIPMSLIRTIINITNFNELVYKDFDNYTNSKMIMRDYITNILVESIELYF", "test": "GC-MS (SPME) of reaction products", "format": "biochemical", "conditions": "37 °C, 4 h; products linalool and ocimene"}, "[2]": {"target": "T2, OncSBCCA1 (Oncidium hybrid Sharry Baby, UniProt A0A7L5RYG3 1-622)", "T2 sequence (A0A7L5RYG3 entry or part of it)": "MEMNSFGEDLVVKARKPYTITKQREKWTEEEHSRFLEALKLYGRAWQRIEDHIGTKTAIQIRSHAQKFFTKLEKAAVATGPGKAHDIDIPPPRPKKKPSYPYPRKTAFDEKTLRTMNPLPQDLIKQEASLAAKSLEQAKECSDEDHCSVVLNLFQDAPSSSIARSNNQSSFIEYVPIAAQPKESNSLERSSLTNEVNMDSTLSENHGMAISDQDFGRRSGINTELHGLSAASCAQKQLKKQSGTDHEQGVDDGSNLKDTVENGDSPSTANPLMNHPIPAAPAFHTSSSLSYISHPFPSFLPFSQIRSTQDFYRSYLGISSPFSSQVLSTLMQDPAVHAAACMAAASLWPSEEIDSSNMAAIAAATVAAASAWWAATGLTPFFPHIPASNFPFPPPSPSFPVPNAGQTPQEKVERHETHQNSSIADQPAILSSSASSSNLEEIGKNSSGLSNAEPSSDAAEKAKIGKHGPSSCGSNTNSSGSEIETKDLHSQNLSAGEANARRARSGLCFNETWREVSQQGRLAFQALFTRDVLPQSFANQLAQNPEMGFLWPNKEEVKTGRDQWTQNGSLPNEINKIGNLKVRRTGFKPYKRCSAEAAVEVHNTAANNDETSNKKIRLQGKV", "test": "EMSA; 0-15 ug CCA1 in 10 uL; BSA; 10 uL with 2 uL 5X buffer (5X: 50 mM Tris-HCl, 750 mM KCl, 2.5 mM EDTA, 62.5% glycerol), i.e. 1X 10 mM Tris-HCl, 150 mM KCl, 0.5 mM EDTA, 12.5% glycerol; BSA; 30 min; pH and temperature not stated; native PAGE in 0.5X TAE, 150 V", "conditions": "protein: recombinant; tags: His-tag (pET28a); label: 6-FAM (ligated with T4 ligase)"}, "[3]": {"target": "T2, OncSBCCA1", "test": "competition; 50x unlabeled competitor abolished the CCA1-probe signal; 10 uL with 2 uL 5X buffer (5X: 50 mM Tris-HCl, 750 mM KCl, 2.5 mM EDTA, 62.5% glycerol), i.e. 1X 10 mM Tris-HCl, 150 mM KCl, 0.5 mM EDTA, 12.5% glycerol; BSA; 30 min; pH and temperature not stated; native PAGE in 0.5X TAE, 150 V", "conditions": "protein: recombinant; tags: His-tag (pET28a)"}}}
{"molecule": "CC(C)=CCC/C(C)=C/COP(=O)(O)OP(=O)(O)O", "note": "[GDP, geranyl diphosphate]", "values": [{"measurement": "GC-MS (SPME) of reaction products", "setting": "[1]", "result": "TPS recombinant protein was purified, then fed with the precursor GDP"}]}
{"molecule": "CBS probe (TPS promoter, 24-mer) (dsDNA) DNA 1: TATTTTAGAGATTTTTACATACAT DNA 2: ATGTATGTAAAAATCTCTAAAATA", "values": [{"measurement": "binding result", "setting": "[2]", "result": "binds"}]}
{"molecule": "unlabeled CBS competitor (24-mer) (dsDNA) DNA 1: TATTTTAGAGATTTTTACATACAT DNA 2: ATGTATGTAAAAATCTCTAAAATA", "values": [{"measurement": "binding result", "setting": "[3]", "result": "binds"}]}
